In PMC6611904, “The transcription factor OsSUF4 interacts with SDG725 in promoting H3K36me3 establishment”:

B1: Os06g06490 probe (dsDNA)
DNA 1: ATATTTTTTCGCGGAAATTCGGTCTTCACT
DNA 2: AGTGAAGACCGAATTTCCGCGAAAAAATAT
B2: Hd3a-e (Hd3a-WT) (dsDNA)
DNA 1: ACAGTTAACTAACGGTACGGAAATGGTATAAA
DNA 2: TTTATACCATTTCCGTACCGTTAGTTAACTGT
B3: Os12g01760 probe (dsDNA)
DNA 1: ATCATTTTTTCGGAAATATACAAATGCTGA
DNA 2: TCAGCATTTGTATATTTCCGAAAAAATGAT
B4: RFT1-WT (dsDNA)
DNA 1: AGTATGAGTTTTGGAATCGGAAATATACCGAAC
DNA 2: GTTCGGTATATTTCCGATTCCAAAACTCATACT
B5: Os02g08490 probe (dsDNA)
DNA 1: AGACCGTCGATTCGGAAATAAACGGGCCGG
DNA 2: CCGGCCCGTTTATTTCCGAATCGACGGTCT
B6: Os05g48810 probe (dsDNA)
DNA 1: TATATTCAATGTCGGAAATCATTCCCGTAC
DNA 2: GTACGGGAATGATTTCCGACATTGAATATA
B7: Os04g49660 probe (dsDNA)
DNA 1: AGGACTAATTCGGAAATCTCCCCTTCCCGT
DNA 2: ACGGGAAGGGGAGATTTCCGAATTAGTCCT
B8: Hd3a-mu8 (dsDNA)
DNA 1: ACAGTTAACTAACGGCCTAAGGGGGGTATAAA
DNA 2: TTTATACCCCCCTTAGGCCGTTAGTTAACTGT
B9: ITC 16-bp DNA (dsDNA)
DNA 1: GGGTACGGAAATGGTA
DNA 2: TACCATTTCCGTACCC
B10: Os09g31486 probe (dsDNA)
DNA 1: CCACCGAAATGACGGAAATGCCCCTGGCCG
DNA 2: CGGCCAGGGGCATTTCCGTCATTTCGGTGG
B11: Os12g21784 probe (dsDNA)
DNA 1: CTTTCTCTTCGGAAATATAAATATATACCC
DNA 2: GGGTATATATTTATATTTCCGAAGAGAAAG

Experiments:
His-OsSUF4N = His-OsSUF4N (Oryza sativa, UniProt Q653D5 1-105); experiment: EMSA; ITC: 100 mM NaCl, 20 mM Tris-HCl pH 8.0, 25 C, 2 mM protein into 0.1 mM DNA; EMSA: LightShift kit binding buffer, 5 ug protein, 0.02 uM probe, poly(dI-dC), 25 C 30 min, 5% PAGE; details: protein: recombinant; tags: His (pET32a)
Sequence of His-OsSUF4N (Q653D5 entry or part of it): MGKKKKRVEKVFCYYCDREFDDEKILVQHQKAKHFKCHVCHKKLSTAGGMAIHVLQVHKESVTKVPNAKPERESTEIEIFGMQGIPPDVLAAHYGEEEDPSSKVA

His-AtSUF4 (full length) = His-AtSUF4 (full length) (Arabidopsis thaliana, UniProt Q9C5G0 1-367); experiment: as above; details: protein: recombinant; tags: His (pET32a)
Sequence of His-AtSUF4 (full length) (Q9C5G0 whole entry): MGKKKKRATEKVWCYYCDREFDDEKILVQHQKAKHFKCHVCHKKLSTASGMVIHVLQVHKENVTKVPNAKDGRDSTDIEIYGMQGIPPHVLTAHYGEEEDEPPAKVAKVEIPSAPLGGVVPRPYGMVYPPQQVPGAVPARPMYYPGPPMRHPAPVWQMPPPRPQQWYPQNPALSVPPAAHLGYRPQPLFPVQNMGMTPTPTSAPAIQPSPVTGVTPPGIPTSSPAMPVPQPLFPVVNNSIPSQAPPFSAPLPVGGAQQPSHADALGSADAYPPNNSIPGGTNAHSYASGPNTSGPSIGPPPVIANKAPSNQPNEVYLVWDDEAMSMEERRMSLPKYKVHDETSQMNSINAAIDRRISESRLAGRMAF

OsSUF4 ZF K36A = OsSUF4 ZF K36A (Oryza sativa, UniProt Q653D5 10-100, K36A); experiment: ITC; ITC: 100 mM NaCl, 20 mM Tris-HCl pH 8.0, 25 C, 2 mM protein into 0.1 mM DNA; EMSA: LightShift kit binding buffer, 5 ug protein, 0.02 uM probe, poly(dI-dC), 25 C 30 min, 5% PAGE; details: protein: recombinant; tags: pET28-SUMO; Ni column; blunt
Sequence of OsSUF4 ZF K36A (Q653D5 entry or part of it K36A | K36A K36A): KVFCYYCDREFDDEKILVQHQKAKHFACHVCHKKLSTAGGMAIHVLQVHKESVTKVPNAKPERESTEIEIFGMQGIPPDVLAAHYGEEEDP

OsSUF4 ZF K33A = OsSUF4 ZF K33A (Oryza sativa, UniProt Q653D5 10-100, K33A); experiment: as above; details: protein: recombinant; tags: pET28-SUMO; Ni column; blunt
Sequence of OsSUF4 ZF K33A (Q653D5 entry or part of it K33A | K33A K33A): as the sequence (Q653D5 entry or part of it K36A | K36A K36A) above, with K24A, A27K counted along it

[1] = target: OsSUF4 zinc finger domain WT (Oryza sativa, UniProt Q653D5 10-100); experiment: as above; details: protein: recombinant; tags: pET28-SUMO; Ni column; blunt
Sequence of OsSUF4 zinc finger domain WT (Q653D5 entry or part of it): as the sequence (Q653D5 entry or part of it K36A | K36A K36A) above, with A27K counted along it

OsSUF4 ZF K31A = OsSUF4 ZF K31A (Oryza sativa, UniProt Q653D5 10-100, K31A); experiment: as above; details: protein: recombinant; tags: pET28-SUMO; Ni column; blunt
Sequence of OsSUF4 ZF K31A (Q653D5 entry or part of it K31A | K31A K31A): as the sequence (Q653D5 entry or part of it K36A | K36A K36A) above, with K22A, A27K counted along it

OsSUF4 ZF K43A = OsSUF4 ZF K43A (Oryza sativa, UniProt Q653D5 10-100, K43A); experiment: as above; details: protein: recombinant; tags: pET28-SUMO; Ni column; blunt
Sequence of OsSUF4 ZF K43A (Q653D5 entry or part of it K43A | K43A K43A): as the sequence (Q653D5 entry or part of it K36A | K36A K36A) above, with A27K, K34A counted along it

OsSUF4 ZF K24A = OsSUF4 ZF K24A (Oryza sativa, UniProt Q653D5 10-100, K24A); experiment: as above; details: protein: recombinant; tags: pET28-SUMO; Ni column; blunt
Sequence of OsSUF4 ZF K24A (Q653D5 entry or part of it K24A | K24A K24A): as the sequence (Q653D5 entry or part of it K36A | K36A K36A) above, with K15A, A27K counted along it

OsSUF4 ZF 4m = OsSUF4 ZF 4m (Oryza sativa, UniProt Q653D5 10-100, R18A;K33A;K36A;K43A); experiment: as above; details: protein: recombinant; tags: pET28-SUMO; Ni column; blunt
Sequence of OsSUF4 ZF 4m (Q653D5 entry or part of it R18A;K33A;K36A;K43A): as the sequence (Q653D5 entry or part of it K36A | K36A K36A) above, with R9A, K24A, K34A counted along it

OsSUF4 ZF R18A = OsSUF4 ZF R18A (Oryza sativa, UniProt Q653D5 10-100, R18A); experiment: as above; details: protein: recombinant; tags: pET28-SUMO; Ni column; blunt
Sequence of OsSUF4 ZF R18A (Q653D5 entry or part of it R18A | R18A R18A): as the sequence (Q653D5 entry or part of it K36A | K36A K36A) above, with R9A, A27K counted along it

Binder | binding result (His-OsSUF4N) | also measured
B1 | binds | –
B2 | – | binding result (His-AtSUF4 (full length)): no binding
B3 | binds | –
B4 | binds | –
B5 | binds | –
B6 | binds | –
B7 | binds | –
B8 | no binding | –
B9 | – | binding result (OsSUF4 ZF K36A): no binding; binding result (OsSUF4 ZF K33A): no binding; Kd [1]: 51.3 ± 3.68 µM; binding result (OsSUF4 ZF K31A): no binding; binding result (OsSUF4 ZF K43A): no binding; binding result (OsSUF4 ZF K24A): no binding; binding result (OsSUF4 ZF 4m): no binding; binding result (OsSUF4 ZF R18A): no binding
B10 | binds | –
B11 | binds | –
